# According to patent US20260232827A1 (Zymeworks, published 2026):
# B1: v18993 (lifastuzumab), reference anti-NaPi2b antibody (antibody, human IgG1, kappa)
# heavy 1: GEVQLVESGGGLVQPGGSLRLSCAASGFSFSDFAMSWVRQAPGKGLEWVATIGRVAFHTYYPDSMKGRFTISRDNSKNTLYLQMNSLRAEDTAVYYCARHRGFDVGHFDFWGQGTLVTVSSASTKGPSVFPLAPSSKSTSGGTAALGCLVKDYFPEPVTVSWNSGALTSGVHTFPAVLQSSGLYSLSSVVTVPSSSLGTQTYICNVNHKPSNTKVDKKVEPKSCDKTHTCPPCPAPELLGGPSVFLFPPKPKDTLMISRTPEVTCVVVDVSHEDPEVKFNWYVDGVEVHNAKTKPREEQYNSTYRVVSVLTVLHQDWLNGKEYKCKVSNKALPAPIEKTISKAKGQPREPQVYVYPPSRDELTKNQVSLTCLVKGFYPSDIAVEWESNGQPENNYKTTPPVLDSDGSFALVSKLTVDKSRWQQGNVFSCSVMHEALHNHYTQKSLSLSPG
# heavy 2: not shown
# light: GDIQMTQSPSSLSASVGDRVTITCRSSETLVHSSGNTYLEWYQQKPGKAPKLLIYRVSNRFSGVPSRFSGSGSGTDFTLTISSLQPEDFATYYCFQGSFNPLTFGQGTKVEIKRTVAAPSVFIFPPSDEQLKSGTASVVCLLNNFYPREAKVQWKVDNALQSGNSQESVTEQDSKDSTYSLSSTLTLSKADYEKHKVYACEVTHQGLSSPVTKSFNRGEC
# B2: lifastuzumab (v18993), reference anti-NaPi2b antibody (antibody, human IgG1, kappa)
# heavy 1: B1 heavy 1
# heavy 2: not shown
# light: B1 light
# B3: palivizumab (v21995), anti-RSV antibody, negative control (antibody, human IgG1, kappa, V domains shown)
# VH: QVTLRESGPALVKPTQTLTLTCTFSGFSLSTSGMSVGWIRQPPGKALEWLADIWWDDKKDYNPSLKSRLTISKDTSKNQVVLKVTNMDPADTATYYCARSMITNWYFDVWGAGTTVTVSS
# VL: DIQMTQSPSTLSASVGDRVTITCKSQLSVGYMHWYQQKPGKAPKLLIYDTSKLASGVPSRFSGSGSGTEFTLTISSLQPDDFATYYCFQGSGYPFTFGGGTKLEIKR
# B4: v18992 (MX35), reference anti-NaPi2b antibody (antibody, human IgG1, kappa)
# heavy 1: GQVQLVQSGAEVVKPGASVKMSCKASGYTFTGYNIHWVKQAPGQGLEWIGAIYPGNGDTSYKQKFRGRATLTADTSTSTVYMELSSLRSEDSAVYYCARGETARATFAYWGQGTLVTVSSASTKGPSVFPLAPSSKSTSGGTAALGCLVKDYFPEPVTVSWNSGALTSGVHTFPAVLQSSGLYSLSSVVTVPSSSLGTQTYICNVNHKPSNTKVDKKVEPKSCDKTHTCPPCPAPELLGGPSVFLFPPKPKDTLMISRTPEVTCVVVDVSHEDPEVKFNWYVDGVEVHNAKTKPREEQYNSTYRVVSVLTVLHQDWLNGKEYKCKVSNKALPAPIEKTISKAKGQPREPQVYVYPPSRDELTKNQVSLTCLVKGFYPSDIAVEWESNGQPENNYKTTPPVLDSDGSFALVSKLTVDKSRWQQGNVFSCSVMHEALHNHYTQKSLSLSPG
# heavy 2: not shown
# light: GDIQMTQSPSSLSASVGDRVTITCSASQDIGNFLNWYQQKPGKTVKVLIYYTSSLYSGVPSRFSGSGSGTDYTLTISSLQPEDFATYYCQQYSKLPLTFGQGTKLELKRTVAAPSVFIFPPSDEQLKSGTASVVCLLNNFYPREAKVQWKVDNALQSGNSQESVTEQDSKDSTYSLSSTLTLSKADYEKHKVYACEVTHQGLSSPVTKSFNRGEC
# B5: MX35 (v18992), reference anti-NaPi2b antibody (antibody, human IgG1, kappa)
# heavy 1: B4 heavy 1
# heavy 2: not shown
# light: B4 light
# B6: v38591 (humanized anti-NaPi2b antibody, H1L2, wild-type Fc, heavy chains with C-terminal lysine) (antibody, human IgG1, kappa)
# heavy: not shown
# light: DVQMTQSPSSLSASVGDRVTITCRASQDVYSYLNWYQQKPGKAVKLLIYYTSRLQSGVPSRFSGSGSGTDYTLTISSLQPEDFATYYCQQYNIFPWTFGQGTKLEIKRTVAAPSVFIFPPSDEQLKSGTASVVCLLNNFYPREAKVQWKVDNALQSGNSQESVTEQDSKDSTYSLSSTLTLSKADYEKHKVYACEVTHQGLSSPVTKSFNRGEC
# notes: Full-size human IgG1/kappa antibody; also called v38591 (wild-type Fc)
# How the values were obtained:
# cynomolgus monkey NaPi2b [1] = target: T1, cynomolgus monkey NaPi2b (cynomolgus monkey, UniProt O95436 1-690 (human entry)); assay: flow cytometry, HEK293-6e cells transfected with cynomolgus NaPi2b; apparent Kd
# T1 construct: also called Cyno NaPi2b; Cy NaPi2b
# T1 chain: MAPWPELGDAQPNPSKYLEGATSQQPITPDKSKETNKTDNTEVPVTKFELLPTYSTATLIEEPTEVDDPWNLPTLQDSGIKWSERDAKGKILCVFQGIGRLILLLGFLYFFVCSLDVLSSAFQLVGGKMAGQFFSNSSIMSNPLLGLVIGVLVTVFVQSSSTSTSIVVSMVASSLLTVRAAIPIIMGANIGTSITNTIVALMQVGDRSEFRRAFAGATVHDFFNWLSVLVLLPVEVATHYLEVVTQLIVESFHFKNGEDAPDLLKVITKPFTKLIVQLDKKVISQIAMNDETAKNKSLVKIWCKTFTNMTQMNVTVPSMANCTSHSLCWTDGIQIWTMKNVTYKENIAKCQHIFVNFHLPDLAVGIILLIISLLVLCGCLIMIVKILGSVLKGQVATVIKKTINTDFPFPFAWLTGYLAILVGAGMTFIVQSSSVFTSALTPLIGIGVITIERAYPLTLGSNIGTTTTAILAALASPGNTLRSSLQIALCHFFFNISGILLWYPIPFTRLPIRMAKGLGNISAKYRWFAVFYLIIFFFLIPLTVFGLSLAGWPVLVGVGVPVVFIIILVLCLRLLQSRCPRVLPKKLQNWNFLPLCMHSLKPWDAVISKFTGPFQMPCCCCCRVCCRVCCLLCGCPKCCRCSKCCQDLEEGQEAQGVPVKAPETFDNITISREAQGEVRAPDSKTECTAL
# cynomolgus monkey NaPi2b [2] = target: T1, cynomolgus monkey NaPi2b; assay: flow cytometry, HEK293-6e cells transfected with cynomolgus NaPi2b
# [3] = target: T2, Construct 6 (human NaPi2b del 317-333) (human, UniProt O95436 1-690); assay: flow cytometry, transfected HEK293-6e cells, antibody 20 nM
# T2 construct: also called CL_#29919
# T2 sequence: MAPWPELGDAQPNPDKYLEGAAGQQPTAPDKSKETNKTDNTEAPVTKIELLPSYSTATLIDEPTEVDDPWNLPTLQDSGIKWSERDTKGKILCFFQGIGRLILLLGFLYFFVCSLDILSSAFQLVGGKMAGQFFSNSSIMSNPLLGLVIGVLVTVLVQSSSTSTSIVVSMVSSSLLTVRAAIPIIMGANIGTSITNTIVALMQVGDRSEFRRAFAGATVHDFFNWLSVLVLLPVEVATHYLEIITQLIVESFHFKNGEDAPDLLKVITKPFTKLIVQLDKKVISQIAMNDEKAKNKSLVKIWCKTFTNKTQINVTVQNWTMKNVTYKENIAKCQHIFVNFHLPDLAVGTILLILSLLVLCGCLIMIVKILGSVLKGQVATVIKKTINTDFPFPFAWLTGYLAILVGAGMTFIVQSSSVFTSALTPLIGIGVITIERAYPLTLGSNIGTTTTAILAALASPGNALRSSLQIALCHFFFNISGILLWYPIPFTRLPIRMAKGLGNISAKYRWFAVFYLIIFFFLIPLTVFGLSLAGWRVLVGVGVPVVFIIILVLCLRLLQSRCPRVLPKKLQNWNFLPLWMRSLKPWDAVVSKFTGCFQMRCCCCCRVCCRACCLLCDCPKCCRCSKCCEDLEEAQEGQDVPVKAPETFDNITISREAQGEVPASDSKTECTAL
# [4] = target: T3, Construct 7 (human NaPi2b del 317-326) (human, UniProt O95436 1-690); assay: as above
# T3 construct: also called CL_#29921
# T3 sequence: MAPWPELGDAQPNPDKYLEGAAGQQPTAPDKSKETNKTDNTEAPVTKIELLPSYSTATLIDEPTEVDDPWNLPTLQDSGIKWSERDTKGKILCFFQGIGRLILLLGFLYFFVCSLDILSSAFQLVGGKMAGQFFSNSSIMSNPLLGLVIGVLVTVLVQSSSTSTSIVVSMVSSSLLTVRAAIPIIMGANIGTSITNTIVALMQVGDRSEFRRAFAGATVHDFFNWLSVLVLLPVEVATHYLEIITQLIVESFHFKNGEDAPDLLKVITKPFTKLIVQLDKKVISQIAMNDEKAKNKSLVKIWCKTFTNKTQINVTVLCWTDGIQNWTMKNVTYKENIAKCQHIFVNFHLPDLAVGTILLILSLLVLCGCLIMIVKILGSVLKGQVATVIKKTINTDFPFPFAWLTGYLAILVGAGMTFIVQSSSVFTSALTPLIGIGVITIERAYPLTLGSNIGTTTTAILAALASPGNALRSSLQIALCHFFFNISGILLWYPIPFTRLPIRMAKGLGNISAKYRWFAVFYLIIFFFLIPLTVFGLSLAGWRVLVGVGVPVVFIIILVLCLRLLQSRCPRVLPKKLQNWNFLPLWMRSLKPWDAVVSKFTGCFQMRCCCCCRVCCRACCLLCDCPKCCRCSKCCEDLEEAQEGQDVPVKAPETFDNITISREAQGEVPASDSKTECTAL
# [5] = target: T4, Construct 3 (chimeric human NaPi2b, swap in NaPi2c in 304-321) (human); assay: as above
# T4 construct: also called CL_#29916
Binder,Kd (cynomolgus monkey NaPi2b [1]) [nM],Bmax (cynomolgus monkey NaPi2b [2]),Background-Subtracted AF647 Mean Fluorescence Intensity [3] [MFI],Background-Subtracted AF647 Mean Fluorescence Intensity [4] [MFI],Background-Subtracted AF647 Mean Fluorescence Intensity [5] [MFI]
B1,6.27,1560,–,–,–
B2,–,–,-3,35,920
B3,–,–,1,-85,39
B4,31,2360,–,–,–
B5,–,–,67,233,930
B6,–,–,-7,981,1120
